Results reported in patent US20180271998A1 (MERRIMACK PHARMACEUTICALS, published 2018).

B1: anti-EphA2 Fab 12 (IgG1 G44C, C233S heavy chain; lambda G100C, C214S light chain), Fab-PEG-DSPE conjugate (Fab, V domains shown)
VH: QVQLVQSGGGLVQPGGSLRLSCAASGFTFSSYAMHWVRQAPGKCLEWVTVISPDGHNTYYADSVKGRFTISRDNSKNTLYLQMNSLRAEDTAVYYCARASVGATGPFDIWGQGTLVTVSS
VL: SSELTQPPSVSVAPGQTVTITCQGDSLRSYYASWYQQKPGTAPKLLIYGENNRPSGVPDRFSGSSSGTSASLTITGAQAEDEADYYCNSRDSSGTHLTVFGCGTKLTVLG
modifications: mal-PEG(2000)-DSPE linker conjugated to the C-terminal cysteine of the heavy chain (Cys in DKTHTCAA)
B2: anti-EphA2 Fab 14 (IgG1 G44C, F174C, C233S heavy chain; lambda G100C, S176C, C214S light chain), Fab-PEG-DSPE conjugate (Fab, V domains shown)
VH: QVQLVQSGGGLVQPGGSLRLSCAASGFTFSSYAMHWVRQAPGKCLEWVTVISPDGHNTYYADSVKGRFTISRDNSKNTLYLQMNSLRAEDTAVYYCARASVGATGPFDIWGQGTLVTVSS
VL: SSELTQPPSVSVAPGQTVTITCQGDSLRSYYASWYQQKPGTAPKLLIYGENNRPSGVPDRFSGSSSGTSASLTITGAQAEDEADYYCNSRDSSGTHLTVFGCGTKLTVLG
modifications: mal-PEG(2000)-DSPE linker conjugated to the C-terminal cysteine of the heavy chain (Cys in DKTHTCAA)
B3: anti-EphA2 Fab 15 (IgG1 H172E, F174C, C233S heavy chain; lambda T162D, S176C, C214S light chain), Fab-PEG-DSPE conjugate (Fab, V domains shown)
VH: QVQLVQSGGGLVQPGGSLRLSCAASGFTFSSYAMHWVRQAPGKGLEWVTVISPDGHNTYYADSVKGRFTISRDNSKNTLYLQMNSLRAEDTAVYYCARASVGATGPFDIWGQGTLVTVSS
VL: SSELTQPPSVSVAPGQTVTITCQGDSLRSYYASWYQQKPGTAPKLLIYGENNRPSGVPDRFSGSSSGTSASLTITGAQAEDEADYYCNSRDSSGTHLTVFGGGTKLTVLG
modifications: mal-PEG(2000)-DSPE linker conjugated to the C-terminal cysteine of the heavy chain (Cys in DKTHTCAA)
B4: anti-EphA2 Fab 13 (IgG1 F174C, C233S heavy chain; lambda S176C, C214S light chain), Fab-PEG-DSPE conjugate (Fab, V domains shown)
VH: QVQLVQSGGGLVQPGGSLRLSCAASGFTFSSYAMHWVRQAPGKGLEWVTVISPDGHNTYYADSVKGRFTISRDNSKNTLYLQMNSLRAEDTAVYYCARASVGATGPFDIWGQGTLVTVSS
VL: SSELTQPPSVSVAPGQTVTITCQGDSLRSYYASWYQQKPGTAPKLLIYGENNRPSGVPDRFSGSSSGTSASLTITGAQAEDEADYYCNSRDSSGTHLTVFGGGTKLTVLG
modifications: mal-PEG(2000)-DSPE linker conjugated to the C-terminal cysteine of the heavy chain (Cys in DKTHTCAA)
B5: anti-EphA2 Fab 19 (IgG1 G44L, H172F, F174C, C233S heavy chain; lambda G100L, T162L, S174V, S176C, C214S light chain), Fab-PEG-DSPE conjugate (Fab, V domains shown)
VH: QVQLVQSGGGLVQPGGSLRLSCAASGFTFSSYAMHWVRQAPGKLLEWVTVISPDGHNTYYADSVKGRFTISRDNSKNTLYLQMNSLRAEDTAVYYCARASVGATGPFDIWGQGTLVTVSS
VL: SSELTQPPSVSVAPGQTVTITCQGDSLRSYYASWYQQKPGTAPKLLIYGENNRPSGVPDRFSGSSSGTSASLTITGAQAEDEADYYCNSRDSSGTHLTVFGLGTKLTVLG
modifications: mal-PEG(2000)-DSPE linker conjugated to the C-terminal cysteine of the heavy chain (Cys in DKTHTCAA)
B6: anti-EphA2 Fab 17 (IgG1 G44L, F174C, C233S heavy chain; lambda G100L, S176C, C214S light chain), Fab-PEG-DSPE conjugate (Fab, V domains shown)
VH: QVQLVQSGGGLVQPGGSLRLSCAASGFTFSSYAMHWVRQAPGKLLEWVTVISPDGHNTYYADSVKGRFTISRDNSKNTLYLQMNSLRAEDTAVYYCARASVGATGPFDIWGQGTLVTVSS
VL: SSELTQPPSVSVAPGQTVTITCQGDSLRSYYASWYQQKPGTAPKLLIYGENNRPSGVPDRFSGSSSGTSASLTITGAQAEDEADYYCNSRDSSGTHLTVFGLGTKLTVLG
modifications: mal-PEG(2000)-DSPE linker conjugated to the C-terminal cysteine of the heavy chain (Cys in DKTHTCAA)
B7: anti-EphA2 Fab 16 (IgG1 H172F, F174C, C233S heavy chain; lambda T162L, S174V, S176C, C214S light chain), Fab-PEG-DSPE conjugate (Fab, V domains shown)
VH: QVQLVQSGGGLVQPGGSLRLSCAASGFTFSSYAMHWVRQAPGKGLEWVTVISPDGHNTYYADSVKGRFTISRDNSKNTLYLQMNSLRAEDTAVYYCARASVGATGPFDIWGQGTLVTVSS
VL: SSELTQPPSVSVAPGQTVTITCQGDSLRSYYASWYQQKPGTAPKLLIYGENNRPSGVPDRFSGSSSGTSASLTITGAQAEDEADYYCNSRDSSGTHLTVFGGGTKLTVLG
modifications: mal-PEG(2000)-DSPE linker conjugated to the C-terminal cysteine of the heavy chain (Cys in DKTHTCAA)
B8: anti-EphA2 Fab 18 (IgG1 G44L, H172E, F174C, C233S heavy chain; lambda G100L, T162D, S176C, C214S light chain), Fab-PEG-DSPE conjugate (Fab, V domains shown)
VH: QVQLVQSGGGLVQPGGSLRLSCAASGFTFSSYAMHWVRQAPGKLLEWVTVISPDGHNTYYADSVKGRFTISRDNSKNTLYLQMNSLRAEDTAVYYCARASVGATGPFDIWGQGTLVTVSS
VL: SSELTQPPSVSVAPGQTVTITCQGDSLRSYYASWYQQKPGTAPKLLIYGENNRPSGVPDRFSGSSSGTSASLTITGAQAEDEADYYCNSRDSSGTHLTVFGLGTKLTVLG
modifications: mal-PEG(2000)-DSPE linker conjugated to the C-terminal cysteine of the heavy chain (Cys in DKTHTCAA)

Tests used:
[1] = target: T1, Recombinant, Human EphA2 with C-terminal hexahistidine appended (human, UniProt P29317 25-534); test: BLI (Octet Red 96), EphA2-His on anti-His5 sensors, Fab-PEG-DSPE conjugate
T1 construct: Captured on anti-His5 sensors; also called his-tagged recombinant, human EphA
Description: (§1) The Fab-PEG-DSPE conjugates were assayed for EphA2 binding strength using the FortéBIO® Octet® Red 96 system (Pall Corporation) to determine whether conjugation or engineering of the Fab affected binding activity. […] Anti-His5 sensors were first coated with his-tagged recombinant, human EphA (SEQ ID NO:47) at a concentration of 10 μg/ml protein in PBS. The sensors were then incubated in 4 μg/ml of Fab-PEG-DSPE conjugate in PBS. The slope of an association curve between 2-10 seconds was determined and compared across the variants and to the reference conjugate, Fab 11-PEG-PE, which is the anti-EphA2 antibody with wild-type disulfide pairing.

[2] = target: T1, Recombinant, Human EphA2 with …; test: BLI (Octet Red96), EphA2-His on anti-His5 sensors, liposomes with inserted conjugate
Description: (§2) The purified liposomes were assayed for EphA2 binding strength by FortéBIO® Octet® Red96 system (Pall) in PBS at 25 μM liposome phospholipid using anti-His5 sensors coated with recombinant human EphA2 with C-terminal hexahistidine (SEQ ID NO:47). The slope of the association curve from 3-20 sec was determined and compared to the slope observed for liposomes with inserted conjugate of the wild type Fab.

[3] = target: T1, Recombinant, Human EphA2 with …; test: BLI (Octet Red 96), EphA2-His on anti-His5 sensors, 4 ug/ml Fab-PEG-DSPE conjugate, slope of association curve 2-10 s relative to Fab 11 conjugate
Description: as §1

[4] = target: T1, Recombinant, Human EphA2 with …; test: BLI (Octet Red96), EphA2-His on anti-His5 sensors, doxorubicin liposomes with inserted Fab-PEG-DSPE conjugate at 25 uM phospholipid, slope of association curve 3-20 s relative to Fab 11 liposomes
Description: as §2

T1 sequence (P29317 other isoform, or with tags, fused parts or gaps limits assumed): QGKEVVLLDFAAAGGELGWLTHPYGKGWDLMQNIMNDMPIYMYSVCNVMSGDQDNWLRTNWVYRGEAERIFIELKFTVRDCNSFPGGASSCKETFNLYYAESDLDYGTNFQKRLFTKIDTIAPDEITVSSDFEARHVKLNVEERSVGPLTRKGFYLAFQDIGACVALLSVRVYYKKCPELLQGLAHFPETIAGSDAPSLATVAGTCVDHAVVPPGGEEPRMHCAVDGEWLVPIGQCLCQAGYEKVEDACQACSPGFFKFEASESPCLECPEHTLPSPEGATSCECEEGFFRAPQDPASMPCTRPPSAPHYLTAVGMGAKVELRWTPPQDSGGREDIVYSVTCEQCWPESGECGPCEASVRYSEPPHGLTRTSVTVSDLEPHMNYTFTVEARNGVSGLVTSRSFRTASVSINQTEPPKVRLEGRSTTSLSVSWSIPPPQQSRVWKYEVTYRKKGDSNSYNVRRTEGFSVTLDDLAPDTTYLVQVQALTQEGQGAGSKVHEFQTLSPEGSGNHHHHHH

| Binder | binding strength compared to wild-type protein conjugate [1] [%] | EphA2 binding strength compared to control liposomes [2] [%] | Binding strength, % of wild type conjugate [3] | Fab-liposome binding strength, % of control [4] |
| --- | --- | --- | --- | --- |
| B1 | 75 | > 80 | 108 % of wild type conjugate | 109 % of control |
| B2 | 75 | > 80 | 105 % of wild type conjugate | 120 % of control |
| B3 | 75 | > 80 | 86 % of wild type conjugate | 102 % of control |
| B4 | 75 | > 80 | 96.9 % of wild type conjugate | 96.5 % of control |
| B5 | 75 | > 80 | 96.8 % of wild type conjugate | 83.3 % of control |
| B6 | 75 | > 80 | 89.7 % of wild type conjugate | 102 % of control |
| B7 | 75 | > 80 | 85 % of wild type conjugate | 89.3 % of control |
| B8 | 75 | > 80 | 75.5 % of wild type conjugate | 99.6 % of control |
